According to the supplement of paper PMC7877785:
± gives the uncertainty stated by the source.

Test: self-splicing fitness, log relative to wild type (ln ratio); higher = more splicing; Tetrahymena group I intron in knt gene, E. coli kanamycin selection, DiMSum; sequences stand for … in CUCUCU…GGAGGGAAAAGUUAUCAGGCAUGCACCUGGUAGCUAGUCUUUAAACCAAUAGAUUGCAUCGGUUUAAAAGGCAAGACCGUCAAAUUGCGGGAAAGGGGUCAACAGCCGUUCAGUACCAAGUCUCAGGGGAAACUUUGAGAUGGCCUUGCAAAGGGUAUGGUAAUAAGCUGACGGACAUGGUCCUAACCACGCAGCCAAGUCCUAAGUCAACAGAUCUUCUGUUGAUAUGGAUGCAGUUCACAGACUAAAUGUCGGUCGGGGAAGAUGUAUUCUUCUCAUAAGAUAUAGUCGGACCUCUCCUUAAUGGGAGCUAGCGGAUGAAGUGAUGCAACACUGGAGCCGCUGGGAACUAAUUUGUAUGCGAAAGUAUAUUGAUUAGUUUUGGAGUACUCGUGGUCG
Outline: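 Six replicate transformations of E. coli BL21(DE3) with a pET-22b(+) library were grown overnight at 37°C or 30°C. The library randomised all eight P1ex-region intron nucleotides, the intron lying in the knt kanamycin-resistance gene, and plates were LB agar with or without 25 μg/mL kanamycin plus 100 μg/mL carbenicillin, 50 μM IPTG and 0.2% rhamnose. Pooled colonies were amplicon-sequenced on an Illumina HiSeq 2500, and fitness is the DiMSum error-weighted combination of wild-type-normalised replicate fold changes, kanamycin versus none.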

Sequence | self-splicing fitness (ln) (30 °C) | self-splicing fitness (ln) (37 °C)
UGGCAGCAAUAUUACGCACU | -0.473 ± 0.068 | 0.399 ± 0.094
UGGCAGCAAUAUUACGCGCA | -0.259 ± 0.14 | 0.284 ± 0.15
UGGCAGCAAUAUUACGCUGG | -3.47 ± 0.33 | -2.53 ± 0.29
UGGCAGCAAUAUUACGGCCA | – | -0.836 ± 0.45
UGGCAGCAAUAUUACGGCUU | -0.209 ± 0.075 | 0.316 ± 0.098
UGGCAGCAAUAUUACGGGAG | -3.13 ± 0.21 | -1.15 ± 0.14
UGGCAGCAAUAUUACGGUGC | -3.3 ± 0.23 | -2.79 ± 0.32
UGGCAGCAAUAUUACGUAAC | -3.2 ± 0.22 | -2.16 ± 0.26
UGGCAGCAAUAUUACGUCAU | -4.47 ± 0.33 | -2.67 ± 0.26
UGGCAGCAAUAUUACGUCCC | 0.385 ± 0.14 | -0.074 ± 0.19
UGGCAGCAAUAUUACGUCGG | -0.425 ± 0.097 | -0.268 ± 0.13
UGGCAGCAAUAUUACGUUCG | -0.337 ± 0.068 | 0.283 ± 0.096
UGGGAGCAAUAUUACGCGAA | -1.59 ± 0.23 | -1.67 ± 0.34
UGGGAGCAAUAUUACGCGGU | -3.43 ± 0.24 | -3.8 ± 0.33
UGGGAGCAAUAUUACGGCUA | -0.66 ± 0.21 | -0.59 ± 0.15
UGGGAGCAAUAUUACGGCUG | -1.09 ± 0.19 | -2.31 ± 0.26
UGGGAGCAAUAUUACGGGGA | -2.94 ± 0.32 | -2.9 ± 0.29
UGGGAGCAAUAUUACGGUCG | -1.47 ± 0.12 | -0.961 ± 0.2
UGGGAGCAAUAUUACGGUGG | -2.67 ± 0.46 | –
UGGGAGCAAUAUUACGUAUU | -2.76 ± 0.33 | -1.91 ± 0.28
UGGGAGCAAUAUUACGUCGA | -1.85 ± 0.39 | -1.21 ± 0.28
UGGUAGCAAUAUUACGAAGG | -2.95 ± 0.28 | -1.39 ± 0.24
UGGUAGCAAUAUUACGAGAC | -1.69 ± 0.24 | -2.71 ± 0.43
UGGUAGCAAUAUUACGCACA | -0.0584 ± 0.068 | 0.436 ± 0.074
UGGUAGCAAUAUUACGCCAG | -1.16 ± 0.28 | -0.742 ± 0.3
UGGUAGCAAUAUUACGCCCG | 0.0173 ± 0.14 | -0.718 ± 0.17

Sequence | self-splicing fitness (ln) (30 °C) | self-splicing fitness (ln) (37 °C)
UGGUAGCAAUAUUACGCCUC | -1.82 ± 0.39 | -2.03 ± 0.39
UGGUAGCAAUAUUACGCGCG | 0.0906 ± 0.2 | -0.0153 ± 0.25
UGGUAGCAAUAUUACGCGUC | -3.94 ± 0.43 | -2.52 ± 0.35
UGGUAGCAAUAUUACGCGUU | -2.76 ± 0.13 | -1.32 ± 0.12
UGGUAGCAAUAUUACGCUCA | -0.626 ± 0.14 | 0.26 ± 0.18
UGGUAGCAAUAUUACGCUGA | -1.07 ± 0.15 | -0.679 ± 0.11
UGGUAGCAAUAUUACGGAAG | -2.16 ± 0.15 | -1.27 ± 0.18
UGGUAGCAAUAUUACGGGCU | -2.27 ± 0.14 | -0.926 ± 0.11
UGGUAGCAAUAUUACGGGGC | – | -2.37 ± 0.38
UGGUAGCAAUAUUACGUCCU | 0.31 ± 0.2 | 0.713 ± 0.3
UGGUAGCAAUAUUACGUGUC | -2.13 ± 0.46 | –
UGUAAGCAAUAUUACGAAAC | -4.22 ± 0.3 | -2.95 ± 0.25
UGUAAGCAAUAUUACGAAGG | -2.14 ± 0.15 | -1.92 ± 0.25
UGUAAGCAAUAUUACGACAG | -1.29 ± 0.11 | -0.146 ± 0.13
UGUAAGCAAUAUUACGACGU | -1.29 ± 0.11 | -0.138 ± 0.13
UGUAAGCAAUAUUACGAGUA | -1.48 ± 0.11 | -0.65 ± 0.12
UGUAAGCAAUAUUACGAGUG | -2.02 ± 0.13 | -0.484 ± 0.14
UGUAAGCAAUAUUACGAUGG | -2.9 ± 0.13 | -0.756 ± 0.12
UGUAAGCAAUAUUACGCAAA | -2.11 ± 0.16 | -0.927 ± 0.13
UGUAAGCAAUAUUACGCGGC | – | -1.13 ± 0.27
UGUAAGCAAUAUUACGCGGU | -3.22 ± 0.21 | -2.15 ± 0.29
UGUAAGCAAUAUUACGGACC | -1.18 ± 0.18 | -0.408 ± 0.18
UGUAAGCAAUAUUACGGGUA | -1.61 ± 0.22 | -0.187 ± 0.16
UGUAAGCAAUAUUACGGUCC | -2.16 ± 0.14 | -1.29 ± 0.14
UGUAAGCAAUAUUACGGUUU | -2.96 ± 0.16 | -1.68 ± 0.18
UGUAAGCAAUAUUACGUACG | -0.346 ± 0.057 | -0.333 ± 0.067

Sequence | self-splicing fitness (ln) (30 °C) | self-splicing fitness (ln) (37 °C)
UGUAAGCAAUAUUACGUAGU | -3.01 ± 0.21 | -0.923 ± 0.18
UGUAAGCAAUAUUACGUAUG | -1.11 ± 0.093 | -0.727 ± 0.12
UGUCAGCAAUAUUACGAAAC | – | -0.978 ± 0.25
UGUCAGCAAUAUUACGAAGA | -0.706 ± 0.11 | -0.132 ± 0.11
UGUCAGCAAUAUUACGACAA | -1.02 ± 0.097 | -0.118 ± 0.1
UGUCAGCAAUAUUACGACCG | -0.0146 ± 0.18 | 0.122 ± 0.25
UGUCAGCAAUAUUACGAGGA | -2.46 ± 0.22 | -0.886 ± 0.15
UGUCAGCAAUAUUACGAGGG | -3.72 ± 0.2 | -1.37 ± 0.14
UGUCAGCAAUAUUACGAGUG | -1.07 ± 0.085 | -0.261 ± 0.094
UGUCAGCAAUAUUACGAUUC | -1.84 ± 0.11 | -0.335 ± 0.13
UGUCAGCAAUAUUACGCAAC | -2.59 ± 0.33 | -1.26 ± 0.28
UGUCAGCAAUAUUACGCACG | -1.06 ± 0.12 | -0.829 ± 0.13
UGUCAGCAAUAUUACGCCAA | -0.858 ± 0.13 | -0.585 ± 0.13
UGUCAGCAAUAUUACGGAAA | -1.11 ± 0.088 | -0.145 ± 0.086
UGUCAGCAAUAUUACGGAAG | -2.37 ± 0.14 | -0.569 ± 0.15
UGUCAGCAAUAUUACGGCUU | -0.428 ± 0.12 | -0.319 ± 0.17
UGUCAGCAAUAUUACGGGGU | -2.91 ± 0.18 | -2.49 ± 0.23
UGUCAGCAAUAUUACGGUGC | -3.51 ± 0.43 | -2.74 ± 0.38
UGUCAGCAAUAUUACGUAGA | -0.492 ± 0.057 | -0.604 ± 0.081
UGUCAGCAAUAUUACGUCGC | -1.14 ± 0.25 | –
UGUCAGCAAUAUUACGUGUC | – | -2.37 ± 0.21
UGUCAGCAAUAUUACGUUCA | -0.292 ± 0.1 | -0.052 ± 0.14
UGUGAGCAAUAUUACGAAAA | -1.47 ± 0.35 | -1.31 ± 0.46
UGUGAGCAAUAUUACGAACG | -0.83 ± 0.075 | 0.261 ± 0.086
UGUGAGCAAUAUUACGAAGA | -2.48 ± 0.37 | –
UGUGAGCAAUAUUACGAAGC | -2.81 ± 0.34 | -2.08 ± 0.47
